Source: patent US7838288B2, “Modulators of odorant receptors” (Duke University, priority 2004, dated 2010)
Blank lines part the entries; values can stand above or below the molecule they belong to.

Legend:
[1] = tested on: olfr62; test: Living-cell staining of cell-surface olfr62; assay type: cell-based, mouse
Protocol: The proteins encoded by these clones were named REEP1, for Receptor Expression Enhancing Protein 1 and RTP1, for Receptor Transporting Protein 1. Subsequently, RTP2 was found, a close relative of RTP1. […] Next, REEP1, RTP1, and RTP2 were tested to detect a similar effect in promoting cell-surface expression of other ORs. Four different ORs (mouse OREG, mouse olfr62, mouse OR-S46 and rat I7) were expressed in 293T cells with or without REEP1, RTP1, or RTP2. […] Additionally, ORs transfected with REEP and/or RTP generated more immunofluorescent cells and stronger signals in positive cells compared with ORs without REEP and/or RTP (see FIG. 2A). The signal intensity and the number of immunopositive cells varied when using different ORs at each condition. […] Nonetheless, occasional immunopositive cells were observed only when the accessory proteins were co-expressed. The effects of RTP1 or RTP2 were consistently more robust than that of REEP1. The enhancement of cell-surface expression was specific for ORs and not for other GPCRs: neither REEP and/or RTP enhanced expression of the β2 adrenergic receptor, mT2R5 (a mouse bitter taste receptor) (see, e.g., Chandrashekar, J., et al. (2000) Cell 100, 703-711; herein incorporated by reference in its entirety), or a V2R pheromone receptor (VR4) (see, e.g., Matsunami, H., and Buck, L. B. (1997) Cell 90, 775-784; herein incorporated by reference in its entirety) (see FIG. 2A and FIG. 3). Finally, enhancement of cell-surface expression of MOR203-1 was not observed when other members of the REEP and RTP families (REEP2 and RTP4) were co-expressed.
293T cells were maintained in minimal essential medium containing 10% fetal bovine serum (M10). Lipofectamine 2000 (Invitrogen) was used for transfection. In live-cell staining, 16 hours after transfection, cells were incubated in M10 containing anti rhodopsin antibody, 4D2 (see, e.g., Laird, D. W., and Molday, R. S. (1988) Invest Opthalmol V is Sci 29, 419-428; herein incorporated by reference in its entirety) and 15 mM NaN3 at 4 degrees C. for 1 hour. After washing, cells were incubated with Cy3-conjugated anti mouse IgG (Jackson Immunologicals), washed and mounted. For FACS analysis, 4D2 and PE-conjugated anti mouse IgG (Jackson Immunologicals) were used to monitor the Rho tagged receptor expression. Anti HA rabbit antibodies (Sigma) and Alexa 488 conjugated anti rabbit IgG (Molecular Probes) was used to stain the HA-β2 adrenergic receptor. To establish the Hana3a cells, 1 ug/ml of puromycin was used for selection. 96 colonies were picked and assayed using luciferase assay using OREG.

[2] = tested on: MOR203-1; test: Co-immunoprecipitation with HA-tagged MOR203-1; assay type: binding, mouse; settings: Flag-tagged protein, 293T cells, HA-MOR203-1 precipitated
Protocol: Given the ability of REEP and/or RTP to promote cell-surface expression of ORs, it was hypothesized that they may also interact with OR proteins. This was assessed using co-immunoprecipitation assays. HA-tagged MOR203-1 and Flag-tagged REEP1, RTP1 or ICAP-1, a negative control (see, e.g., Zawistowski, J. S., et al. (2002) Hum Mol Genet. 11, 389-396; herein incorporated by reference in its entirety) were transfected in 293T cells. After the cell extracts were precipitated with anti-Flag antibodies, proteins were eluted in SDS-sample buffer at room temperature whereupon western blotting analysis was performed to detect the OR proteins. OR proteins were detected as high molecular weight bands after precipitation of REEP1 or RTP1 (see FIG. 7B, lanes 1 and 2). […] The present invention is not limited to a particular mechanism. Indeed, an understanding of the mechanism is not necessary to practice the present invention.
293T cells in 100 mm dishes were transfected with ORs, REEP1, and/or RTP1 cDNAs. 16 hours after transfection, cells were lysed in lysis buffer (50 mM Tris (7.4), 150 mM NaCl, 1% NP-40, 0.5 mM PMSF, 2 mM Benzamidene, 0.5 ug/ml Leupeptin, 1.4 ug/ml pepstatin A, 2.4 ug/ml chymostatin, 15 ug/ml aprotinin, 1 mM sodium orthovanadate). The lysis were incubated with anti-Flag M2 affinity gel (Sigma) or anti-HA affinity matrix (Roche) for 2 hours at 4 degrees C. and washed with lysis buffer. Subsequently, the bound proteins were eluted by incubation with SDS sample buffer at room temperature for 2 hours. SDS-PAGE and western blotting were performed according to Mini-Protean 3 Cell (Bio-Rad) instruction manual. ECL (Amersham) was used for detecting proteins on membranes.

[3] = tested on: olfr62; test: CRE-luciferase reporter gene assay, olfr62; assay type: cell-based, mouse; settings: 293T cells and Hana3A cells expressing RTP1 variant
Protocol: Four ORs (S6/79, S18, S46 and S50) previously assayed using other techniques (see, e.g., Malnic, B., et al. (1999) Cell 96, 713-723; herein incorporated by reference in its entirety) were tested against an assay panel of aliphatic alcohols, aldehydes and acids and some other odorants. Additionally, five “orphan” class I ORs (MOR23-1, MOR31-4, MOR31-6, MOR32-5 and MOR32-11) whose cognate ligands were unknown were tested. At a suprathreshold concentration of 100 uM, all these ORs were odorant selective, responding to only a small subset of the odorants tested (see FIG. 11A). This specificity was retained at lower, more physiologically relevant concentrations. Many of these ORs responded to odorants present in micromolar concentrations. The cell-surface expression of these ORs by living-cell immunofluorescence were evaluated. Some ORs (S18, MOR31-4, MOR31-6 and MOR32-5) were strongly expressed while other ORs (S6, S50, MOR23-1, MOR32-11) were weakly expressed (see FIG. 12). The present invention is not limited to a particular mechanism. Indeed, an understanding of the mechanism is not necessary to practice the present invention. […] Finally, two additional orphan class II ORs, MOR203-1 and olfr62, were tested against a panel of 139 odorants. […] Olfr62 responded to coumarine and piperonal (see FIG. 11C). […] When parental 293T cells for these ORs were used in this luciferase assay, little or no response to the odorants was observed. The present invention is not limited to a particular mechanism. Indeed, an understanding of the mechanism is not necessary to practice the present invention.
Dual-Glo system (Promega) for luciferase assay was used. CRE-Luciferase (Stratagene) was used to measure the receptor activities. Renilla luciferase driven by constitutively active SV40 promoter (pRL-SV40: Promega) was used as an internal control. Cells were plated on poly-D-lysine coated 96 well plates (BIOCOAT, Beckton Dickinson). After 8 hours (for experiments shown in FIGS. 8B and 8C) or 12 hours (for experiments shown in FIG. 8D and FIG. 11) after transfection, the medium was replaced with CD293 chemically defined medium (Invitrogen) and the plates were incubated for one hour at 37 degrees C. The medium was replaced with 50 ul of odorant solutions dissolved in CD293 and incubated for 10 hours (for experiments shown in FIGS. 8B and 8C) or 4 hours (for experiments shown in FIG. 8D and FIG. 11) at 37 degrees C. The manufacture's protocol for measuring luciferase and Renilla luciferase activities was followed. Luminescence was measured using Wallac Victor 1420 (Perkin-Elmer). Normalized luciferase activity was calculated as [Luc (N)-Luc (0)]/RL (N), where Luc (N)=Luminescent count of a certain well, Luc (0)=Luminescent count without odorant for each OR, and RL (N)=Luminescent count of Renilla Luciferase of each well. For cAMP assays, cells were plated onto 24-well plate. […]. Prism software (Graphpad) was used for data analysis. […]

B1: RTP1-D3: RTP1 variant from deleting portions of RTP1-D; murine SEQ ID NO: 50 (protein, listed as Mus musculus)
chain: MRIFRPWRLRCPALHLPSFPTFSIKCSLPPLPTDEDMCKSVTTGEWKKVFYEKMEEVKPADSWDFIIDPNLKHNVLAPGWKQYLELHASGRFHCSWCWHTWQSPHVVILFHMYLDKAQRAGSVRMRVFKQLCYECGTARLDESSMLEENIESLVDNLITSLREQCYGERGGHYRIHVASRQDNRRHRGEFCEACQEGIVHWKPSEKLLEEEATTYTFSRAPSPTKPQAETGSGCNFCSIPWCLFWATVLMLII
cell-surface expression of olfr62 ([1]; accessory protein co-transfected in 293T cells): Increased cell-surface staining

B2: ICAP-1: a negative control protein, Flag-tagged (protein, UniProt O14713 1-200, looked up)
Integrin beta-1-binding …: MFRKGKKRHSSSSSQSSEISTKSKSVDSSLGGLSRSSTVASLDTDSTKSSGQSNNNSDTCAEFRIKYVGAIEKLKLSEGKGLEGPLDLINYIDVAQQDGKLPFVPPEEEFIMGVSKYGIKVSTSDQYDVLHRHALYLIIRMVCYDDGLGAGKSLLALKTTDASNEEYSLWVYQCNSLEQAQAICKVLSTAFDSVLTSEKP
modifications: Flag tag
notes: a negative control protein, Flag-tagged
co-precipitation with HA-MOR203-1 [2]: not detectable

OLFR62 activity as indicated by luciferase expression [3]: Increased enhancement
B3: RTP1-D: RTP1 variant generated by deleting portions of RTP1; murine SEQ ID NO: 44 (protein, listed as Mus musculus)
chain: MRIFRPWRLRCPALHLPSFPTFSIKCSLPPLPTDEDMCKSVTTGEWKKVFYEKMEEVKPADSWDFIIDPNLKHNVLAPGWKQYLELHASGRFHCSWCWHTWQSPHVVILFHMYLDKAQRAGSVRMRVFKQLCYECGTARLDESSMLEENIESLVDNLITSLREQCYGERGGHYRIHVASRQDNRRHRGEFCEACQEGIVHWKPSEKLLEEEATTYTFSRAPSPTKPQAETGSGC
cell-surface expression of olfr62 ([1]; RTP1 variant cDNA transfected into Hana3A cells or 293T cells): Increased cell-surface staining
